Laboratory results from patent US20060253917A1 (published 2006).

B1: OsPN23830 aa 4-207 (other)
chain: LEDFQASVEALPAMLQRNYSLMRELDKSLQGVQTGNEQRCQQEIEDIKHGLESGSITYDPAKLKFSDEAIEEQKHCVRIADEKVALASQTYDLVDAHIQQLDQFMRKLEELRQEKEAATTAAAAAAAAAASVATGTPVAATVTASAGTSTADNTPKGGRSSERGRGGRKKTAKVPTEQPAPAIDLELPVDPNEPTYCLCNQVSY
notes: prey, AD fusion; also called Novel Protein PN23830, Similar to A. thaliana Putative PHD-Finger Protein
B2: OsPN23830 aa 1-169 (other)
chain: MGFLEDFQASVEALPAMLQRNYSLMRELDKSLQGVQTGNEQRCQQEIEDIKHGLESGSITYDPAKLKFSDEAIEEQKHCVRIADEKVALASQTYDLVDAHIQQLDQFMRKLEELRQEKEAATTAAAAAAAAAASVATGTPVAATVTASAGTSTADNTPKGGRSSERGRG
notes: prey, AD fusion
B3: OsPN29115 aa 1-188 (other)
chain: VSFPYSPRPAALAAGARASRVSPVVVAAGGGHQRLMGSLTNTQGLRFGVVVARFNEIVTNLLLQGALETFERYSVKKENITVLSVPGSFEIPVAAQKLGKSGKFDANFVHWRCAFRGDTTHYGAVANSAASGVLSAGLSAEIPCIFGVLTCDDMDQALNRAGGKAGNKGAEAALTAIEMASLFQHHLA
notes: prey, AD fusion; also called Novel Protein PN29115, Fragment, Similar to A. thaliana 6,7-Dimethyl-8-Ribityllumazine Synthase Precursor
B4: OsPN29113 aa 1-92 (other)
chain: CKVSYIDAILGTTVKVPTVDGMVDLKIPSGTQPGTTLVMSKKGVPLLGKSNARGDQLVRVQVEIPKRLSSDERKLIEELANLNKAQTANSRR
notes: prey, AD fusion; also called O. sativa DNAJ Homologue
B5: OsPN29116 aa 1-169 (other)
chain: GRKPVAAQHYNKGDKDGTSTGSRCTSVAWVPEREGIFVVSHSDGNLYVYDKCKDGNTECTFPAIKDPAQLMISHAKSSKSNPIARWHVCQGSINAISFSPDGAYLATVGRDGYLRVFDFSKEQLIFGGKSYYGALLCCTWSSDGKYLLTGGEDDLVQVWSMDDRKIVAW
notes: prey, AD fusion; also called Novel Protein PN29116, Fragment
B6: OsPN29117 prey clone -7-151 (other)
chain: MLVQRRDGDTGPAVRLRVSHGASFRDVAVPAHSTFGELKGVLTQATGVEPERQRLFFRGKEKSDNEFLHTAGVKDGAKLLLLEKPAPANVEQRAEPVIMDESMMKACEAVGRVRAEVDRLSAKVCDLEKSVFAGRKIEDKDFVVLTELLMM
notes: prey, AD fusion; clone includes a small portion (-7 to 0) of the 5' untranslated region; also called Novel Protein PN29117
B7: OsFDRMADS8 aa 104-233 (other)
chain: LDESRRKILGENLEGCSIEELRGLEMKLEKSLHNIRLKKTELLERQIAKLKEKERTLLKDNENLRGKHRNLEAAALVANHMTTTTAPAAWPRDVPMTSSTAGAADAMDVETDLYIGLPGTERSSNRSETG
notes: prey, AD fusion; also called PN20698; O. sativa MADS-box protein FDRMADS8
B8: OsPN24092 aa 797-948 (other)
chain: SIKDQVQTYLEEINTLKSSKNEKEEMIERLQSEIRSLKFEYDNLKILMSTNDSEKHNLASQVLKLRRALESREDVKQNGVKSDEDNHHATSKRIKHDDGTTGSRNVLPSTNRHNANGDCNGHDRRDAAHDQSVKELEILKERNTALEEELKE
notes: prey, AD fusion; also called Novel Protein PN24092, Similar to O. sativa Putative Myosin
B9: OsAAK00972 aa 236-350 (other)
chain: AEGGSKGEGVSSNPQESTANAAPEISAAEKQELQNKMAKLMAMLDEVDRKYKHYYHQMQIVVSSFDMVAGSGAAKPYTAVALQTISKHFRCLKDAINDQINVIRKKLGEEESSSG
notes: prey, AD fusion; also called PN23253; O. sativa Putative Homeodomain Protein OsAAK00972
B10: OsMADS13 aa 75-263 (other)
chain: ACGSTSGAPLIEVNAQQYYQQESAKLRHQIQMLQNTNKHLVGDNVSNLSLKELKQLESRLEKGIAKIRARKNELLASEINYMAKREIELQNDNMDLRTKIAEEEQQLQQVTVARSAAMELQAAAAAQQQQQNPFAVAAAQLDMKCFFPLNLFEAAAQVQAVAAQRQQIIPTELNLGYHHHLAIPGATAA
notes: prey, AD fusion; also called PN20668; O. sativa MADS box protein MADS13
B11: OsPN29084 aa 1-253 (other)
chain: ESGIFRQILRGKLDLESDPWPSISDSAKDLVRNMLIRDPTKRFTAHEVLCHPWIVDDAVAPDKPIDSAVLSRLKHFSAMNKLKKMALRVIAESLSEEEIGGLKELFKMIDTDNSGTITYDELKNGLKRVGSDLMEPEIQALMDAADIDNSGTIDYGEFLAATLHMNKLEREENLVSAFTFFDKDGSGFITIDELSQACEQFGLSDVHLEDMIKDVDQNNDGQIDYSEFAAMMRKGNAGGANAGGVTSTGGTGR
notes: prey, AD fusion; also called Novel Protein PN29084, Fragment, Similar to Soybean Calcium-Dependent Protein Kinase
B12: OsFDRMADS8 aa 63-186 (other)
chain: LQKTIDRYKAYTKDHVNNKTIQQDIQQVKDDTLGLAKKLEALDESRRKILGENLEGCSIEELRGLEMKLEKSLHNIRLKKTELLERQIAKLKEKERTLLKDNENLRGKHRNLEAAALVANHMTT
notes: prey, AD fusion; also called PN20698
B13: OsMADS3 aa 48-177 (other)
chain: FSSRGRLYEYANNSVKSTVERYKKANSDTSNSGTVAEVNAQHYQQESSKLRQQISSLQNANSRTIVGDSINTMSLRDLKQVENRLEKGIAKIRARKNELLYAEVEYMQKREVELQNDNMYLRSKVVENER
notes: prey, AD fusion; also called PN20700; O. sativa MADS box protein MADS3
B14: OsMADS5 aa 113-225 (other)
chain: LLGEDLVPLSLKELEQLENQIEISLMNIRSSKNQQLLDQVFELKRKEQQLQDANKDLKRKIQETSGENMLHISCQDVGPSGHASEANQEFLHHAICDPSLHIGYQAYMDHLNQ
notes: prey, AD fusion; also called PN20770; O. sativa MADS box protein MADS5
B15: OsMADS18 aa 82-154 (other)
chain: EPNTEDQENWGDEYGILKSKLDALQKSQRQLLGEQLDTLTTKELQQLEHQLEYSLKHIRSKKNQLLFESISEL
notes: prey, AD fusion; also called PN20912
B16: OsAAG13633 aa 799-951 (other)
chain: IRSLKFEYDNLKILMSTNDSEKHNLASQVLKLRRALESREDVKQNGVKSDEDNHHATSKRIKHDDGTTGSCNVLPSTNRHNANGDCNGHDRRDAAHDQSVKELEILKERNTALEEELKELHGRYSEISLKFAEVEGERQQLVMTVRALKNSLR
notes: prey, AD fusion; also called PN25701; O. sativa Putative Myosin
B17: OsPN23388 aa 229-331 (other)
chain: LKTAKEKGLQRLVHLSSDLARQVATILENAQTFQENRKIGDVPSVNSNSSGVPSTQGEIDEIHQERQKFVEVAKKNVRDRRARRMQSCEVPIHPITPVKLMES
notes: prey, AD fusion; also called Novel Protein PN23388
B18: OsMADS18 aa 57-224 (other)
chain: FSSHSSMEGILERYQRYSFDERAVLEPNTEDQENWGDEYGILKSKLDALQKSQRQLLGEQLDTLTTKELQQLEHQLEYSLKHIRSKKNQLLFESISELQKKEKSLKNQNNVLQKLMETEKEKNNAIINTNREEQNGATPSTSSPTPVTAPDPIPTTNNSQSQPRGSGE
notes: prey, AD fusion; also called PN20912; O. sativa MADS box protein MADS18
B19: OsPN29077 aa 1-242 (other)
chain: VEAQKKIEAAIRQKGIDENWEAALEHNPEAFARVVMLYVDMEVNGVPLKAFVDSGAQSTIISKSCAERCGLLRLLDQRYRGVAIGVGQSEILGRIHVAPIKIGHVFYPCSFTVLDAPNMEFLFGLDMLRKHQCIIDLKDNVLRVGGGEVSVPFLQEKDIPSHIRDEEKLSKLASLSQGAAGESSTAREKTPDAPPRAPTTGAPAVNPPQPQGGGDFEAKVTKLVELGFDRASVIQALKLFNG
notes: prey, AD fusion; also called Novel Protein PN29077, Fragment, Similar to A. thaliana DNA-Damage Inducible Protein DDI1-Like
B20: OsBAB07943 aa 525-767 (other)
chain: LADSLNKARSLIHPPVKKPSKLGENLTSLAAVVENEHKRLLARKSIIEKRKEDLERQILEKEKEEEKKRLSVLKKSAEDERIRLLNDVKLREQERIRRQLVEKEKIEAEELLQKQIKEIAKRGGKKPVLQGEVTKEAVMELAMNEQFKERQEMEKKLQKTGKQMDYLERAKRQEEAPLIEQAFQKRLEVEKILHEQEQLREIELSKQHHAGDLQEKNRLSRMLEHKNIFQERIVQRREAEFSR
notes: prey, AD fusion; also called PN23832; O. sativa Putative Eukaryotic Translation Initiation Factor 3 Large Subunit
B21: OsPN23829 aa 2-226 (other)
chain: ALSVEKTSSGREYKVKDLSQADFGRLEIELAEVEMPGLMACRAEFGPSQPFKGARISGSLHMTIQTAVLIETLTALGAEVRWCSCNIFSTQDHAAAAIARDSAAVFAWKGETLEEYWWCTERCLDWGVGGGPDLIVDDGGDATLLIHEGVKAEEEFEKSGKVPDPESTDNAEFKIVLTIIRDGLKSDPSKYRKMKERLVGVSEETTTGVKRLYQMQETGALLFPA
notes: prey, AD fusion; also called Novel Protein PN23829 Putative S-Adenosyl-L-Homocysteine Hydrolase
B22: OsFDRMADS6 aa 115-246 (other)
chain: EDLESLNLKELQQLEQQLENSLKHIRSRKSQLMLESINELQRKEKSLQEENKVLQKELVEKQKVQKQQVQWDQTQPQTSSSSSSFMMREALPTTNISNYPAAAGERIEDVAAGQPQHVRIGLPPWMLSHING
notes: prey, AD fusion; also called PN19766; O. sativa MADS-box protein FDRMADS6
B23: OsMADS15 aa 92-237 (other)
chain: CHEYRKLKAKIETIQKCHKHLMGEDHESLNLKELQQLEQQLESSLKHIISRKSHLMLESISELQKKERSLQEENKALQKELVERQKNVRGQQQVGQWDQTQVQAQAQAQPQAQTSSSSSSMLRDQQALLPPQNICYPPVMMGERND
notes: prey, AD fusion; also called PN20842; O. sativa MADS box protein MADS15

Key:
Test in all cases: Y2H; output trait library
OsHOS59 aa 1-100 = target: T1, OsHOS59 aa 1-100 (Oryza sativa, UniProt Q94LW4 113-212)
T1 construct: bait, Gal4 DBD fusion; also called PN20559; O. sativa Homeobox Protein HOS59, Fragment
T1 sequence: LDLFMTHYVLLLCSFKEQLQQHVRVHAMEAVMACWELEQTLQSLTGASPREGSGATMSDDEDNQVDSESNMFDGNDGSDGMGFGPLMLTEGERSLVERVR
Outline: (§1)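 Protein-protein interactions were detected with an automated, high-throughput yeast two-hybrid assay provided by Myriad Genetics Inc. (Salt Lake City, Utah). A bait clone encoding a defined amino-acid fragment of a rice protein was screened against a rice prey library, either the input trait or the output trait library. Prey clones were retrieved, and their encoding sequences were compared by BLAST against databases to identify the interacting proteins.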

OsCS aa 316-583 = target: T2, OsCS aa 316-583 (Oryza sativa, UniProt A2Y0X2 316-583)
T2 construct: bait, Gal4 DBD fusion; also called PN19707
T2 sequence: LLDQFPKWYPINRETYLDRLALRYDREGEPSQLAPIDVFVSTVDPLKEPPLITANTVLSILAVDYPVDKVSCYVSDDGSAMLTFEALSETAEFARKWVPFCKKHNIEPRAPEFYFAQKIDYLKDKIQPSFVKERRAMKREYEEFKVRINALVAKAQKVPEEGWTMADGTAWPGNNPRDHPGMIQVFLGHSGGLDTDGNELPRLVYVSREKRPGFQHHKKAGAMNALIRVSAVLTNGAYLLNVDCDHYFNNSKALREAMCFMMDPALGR
Outline: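 The values record whether an interaction was detected. In an automated, high-throughput yeast two-hybrid screen from Myriad Genetics Inc., rice protein fragments defined by amino-acid range were used as bait against rice prey clone libraries. Full-length genes were identified by BLAST comparison of the sequences encoding the interacting prey fragments against databases.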

OsMADS45 aa 50-198 = target: T3, OsMADS45 aa 50-198 (Oryza sativa, UniProt P0C5B0 50-198)
T3 construct: bait, Gal4 DBD fusion; also called PN20231; O. sativa MADS box protein MADS45
T3 sequence: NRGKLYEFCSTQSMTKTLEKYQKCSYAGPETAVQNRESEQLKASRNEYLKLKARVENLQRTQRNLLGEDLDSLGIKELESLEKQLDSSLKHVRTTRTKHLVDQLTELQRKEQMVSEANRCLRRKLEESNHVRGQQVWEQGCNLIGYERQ
Outline: as §1

| Binder | binding result (OsHOS59 aa 1-100) | binding result (OsMADS45 aa 50-198) | other results |
| --- | --- | --- | --- |
| B1 | binds |  |  |
| B2 | binds |  |  |
| B3 |  |  | binding result (OsCS aa 316-583): binds |
| B4 |  |  | binding result (OsCS aa 316-583): binds |
| B5 |  |  | binding result (OsCS aa 316-583): binds |
| B6 |  |  | binding result (OsCS aa 316-583): binds |
| B7 |  | binds |  |
| B8 | binds |  |  |
| B9 | binds |  |  |
| B10 |  | binds |  |
| B11 |  |  | binding result (OsCS aa 316-583): binds |
| B12 |  | binds |  |
| B13 |  | binds |  |
| B14 |  | binds |  |
| B15 |  | binds |  |
| B16 | binds |  |  |
| B17 | binds |  |  |
| B18 |  | binds |  |
| B19 |  |  | binding result (OsCS aa 316-583): binds |
| B20 | binds |  |  |
| B21 | binds |  |  |
| B22 |  | binds |  |
| B23 |  | binds |  |
